Assay [1] deals with RNA polymerase II (calf thymus) (bovine (calf thymus)). The experiment in a line: cofractionation during purification from calf thymus, Western blot. (In general: Immunoblotting shows a protein as a band on a membrane.)
In assay [2] the target is RNA polymerase II holoenzyme (yeast).
Assay [3] addresses mammalian RNA polymerase II holoenzyme (calf thymus).

Consider bovine SRB7 (from UniProt Q2TBU8), for which the percent of the RNA polymerase II associated with SRB7 in assay [1] is over 20%.

As for GAL4-VP16 (from UniProt P04386), the in vitro transcription from a template with a GAL4 site, reconstituted with holoenzyme, factor a and TBP in assay [2] is 5 fold. Besides, the in vitro transcription from the adenovirus major late promoter with 3 Gal4 binding sites, with coactivators HMG-2 or PC4 in assay [3] turned out to be 5 fold.

The values above are taken from US5919666.
